Positions count from the first letter of the chain named.
B1: IgG-like format No. 10 (DOM15-26 VH on CH / DOM16-52 VH on CK) (bispecific antibody, V domains shown)
V domain 1: EVQLLESGGGLVQPGGSLRLSCAASGFTFGAYPMMWVRQAPGKGLEWVSEISPSGSYTYYADSVKGRFTISRDNSKNTLYLQMNSLRAEDTAVYYCAKDPRKFDYWGQGTLVTVSS
V domain 2: EVQLLESGGGLVQPGGSLRLSCAASGFTFAEQPMTWARQAPGKGLEWVSSISSFGDLTYYADSVKGRFTISRDNSKNTLYLQMNSLRAEDTAVYYCAKGVYRISRFDYWGQGTLVTVSS
notes: IgG-like format; also called IgG 10
B2: IgG-like format No. 19 (DOM15-26 VH on CH / Dummy VK on CK) (antibody, V domains shown, not shown: a dimerising Fc or GST)
VH: B1 V domain 1
notes: IgG-like format; also called IgG 19
B3: TAR15-5 (other)
VH: EVQLLESGGGLVQPGGSLRLSCAASGFTFRLYDMVWVRQAPGKGLEWVSYISSGGSGTYYADSVKGRFTISRDNSKNTLYLQMNSLRAEDTAVYYCAKAGGRASFDYWGQGTLVTVSS
notes: Human dAb, VH single variable domain
B4: TAR15-6 (other)
VH: EVQLLESGGGLVQPGGSLRLSCAASGFTFHLYDMMWVRQAPGKGLEWVSFIGGDGLNTYYADSVKGRFTISRDNSKNTLYLQMNSLRAEDTAVYYCAKAGTQFDYWGQGTLVTVSS
notes: as for B3
B5: TAR15-7 (other)
VH: EVQLLESGGGLVQPGGSLRLSCAASGFTFNKYPMMWVRQAPGKGLEWVSEISPSGQDTYYADSVKGRFTISRDNSKNTLYLQMNSLRAEDTAVYYCAKNPQILSNFDYWGQGTLVTVSS
notes: as for B3
B6: TAR15-8 (other)
VH: EVQLLESGGGLVQPGGSLRLSCAASGFTFQWYPMWWVRQAPGKGLEWVSLIEGQGDRTYYADSVKGRFTISRDNSKNTLYLQMNSLRAEDTAVYYCAKAGDRTAGSRGNSFDYWGQGTLVTVSS
notes: as for B3
B7: TAR15-23 (other)
VH: EVQLLESGGGLVQPGGSLRLSCAASGFTFKAYEMGWVRQAPGKGLEWVSGISPNGGWTYYADSVKGRFTISRDNSKNTLYLQMNSLRAEDTAVYYCAKESISPTPLGFDYWGQGTLVTVSS
notes: as for B3
B8: TAR15-24 (other)
VH: EVQLLESGGGLVQPGGSLRLSCAASGFTFTGYEMGWVRQAPGKGLEWVSYISRGGRWTYYADSVKGRFTISRDNSKNTLYLQMNSLRAEDTAVYYCAKSDTMFDYWGQGTLVTVSS
notes: as for B3
B9: TAR15-25 (other)
VH: B8 VH with T30S, G31A, Y50F, R53G, S99Y, D100S, T101E, M102D
notes: as for B3
B10: TAR15-27 (other)
VH: EVQLLESGGGLVQPGGSLRLSCAASGFTFQFYKMGWVRQAPGKGLEWVSSISSVGDATYYADSVKGRFTISRDNSKNTLYLQMNSLRAEDTAVYYCAKMGGGPPTYVVYFDYWGQGTLVTVSS
notes: as for B3
B11: TAR15-29 (other)
VH: EVQLLESGGGLVQPGGSLRLSCAASGFTFGEYGMYWVRQAPGKGLEWVSSISERGRLTYYADSVKGRFTISRDNSKNTLYLQMNNLRAEDTAVYYCAKSALSSEGFSRSFDYWGQGTLVTVSS
notes: as for B3
B12: TAR15-30 (other)
VH: EVQLLESGGGLVQPGGSLRLSCAASGFTFSDYAMYWVRQAPGKGLEWVSSITARGFITYYADSVKGRFTISRDNSKNTLYLQMNSLRAEDTAVYYCAKSGFPHKSGSNYFDYWGQGTLVTVSS
notes: as for B3

These binders were tested against T1, VEGF-165 (human, UniProt P15692-4 27-191) (assay: VEGF RBA (ELISA): inhibition of VEGF binding to VEGF receptor (R1 or R2 not specified); IgG-like format).
T1 construct: also called vascular endothelial growth factor
T1 sequence (P15692 other isoform, or with tags, fused parts or gaps limits assumed): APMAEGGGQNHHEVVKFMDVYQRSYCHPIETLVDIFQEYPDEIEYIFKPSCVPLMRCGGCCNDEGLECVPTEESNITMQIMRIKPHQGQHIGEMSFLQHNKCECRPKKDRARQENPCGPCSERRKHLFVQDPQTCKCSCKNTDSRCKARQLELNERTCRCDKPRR
An IC50 of 0.05 nM was found for B1 in this work. An IC50 of 4.8 nM was found for B2 in this work.

The binders below were run against T1, VEGF-165 (assay: supernatant VEGFR2 RBA (ELISA); + = more than 50% reduction of VEGF binding to VEGF R2/Fc; dAb assayed at 50 nM).
B3: binds. B4: binds. B5: binds. B6: binds. B7: binds. B8: binds. B9: binds. B10: binds. B11: binds. B12: binds.

What follows are binders tested against T1, VEGF-165 (assay: cell-based or functional assay).
For B1, the “VEGF (bioassay) ND50” value was 0.2 nM.

— patent publication US20070003549A1 (published 2007)
